Data: US10456446B2, “Use of human small leucine zipper protein in osteogenesis procedure” (Korea University Research and Business Foundation, priority 2013, dated 2019)

Columns and labels:
NCoR1 = molecular target: T1, NCoR1 (Homo sapiens, UniProt O75376); assay: Immunoprecipitation of sLZIP with anti-NCoR1 antibodies in 293T cells; type: binding; details: 10 nM RZD for 24 hours
T1 construct: endogenous in cells; host or cells: 293T
Experimental: 293T cells were obtained and washed with cold PBS. The cells were re-suspended in an IP lysis buffer [25 mM of Tris-HCl (pH 7.4), 150 mM of NaCl, 1 mM of EDTA, 1% NP-40 and 5% glycerol, and a protease inhibitor]. A suspension was centrifuged at 16,000×g for 20 minutes at 4° C. Supernatants were collected and incubated with 0.5 μg of appropriate antibodies and 25 μl of protein A/G-agarose or a GST Sepharose 4B bead for 24 hours at 4° C. A protein complex was centrifuged at 1,000×g with a cold IP lysis buffer for 1 minute and washed five times. The final pellet was re-suspended in 50 μl of an SDS-sample buffer containing 5% β-mercaptoethanol and heated for 10 minutes at 100° C. A protein sample was isolated in SDS-PAGE (8 to 10%) and transferred to nitrocellulose membranes. Co-precipitated proteins were detected according to western blotting using specific antibodies.
For this purpose, 293T cells were transfected with GST-PPARγ2 and Flag-sLZIP and were treated or not treated with 10 nM of RZD for 24 hours. […] A protein complex was analyzed in SDS-PAGE, and immunoblotted with anti-GST and anti-Flag antibodies. […] The cell lysates were GST pull-down analyzed (FIG. 5C). […] The cell lysates were GST pull-down analyzed (FIG. 5D). […] A protein complex was analyzed in SDS-PAGE, and then immunoblotted with anti-NCoR1 and anti-Flag antibodies (FIG. 5E). […]

Runx2 = molecular target: T2, Runx2 (Homo sapiens, UniProt Q13950); assay: Runx2 transcriptional activity, luciferase reporter with 6 copies of Runx2 response elements in 293T cells; type: cell-based
T2 construct: expressed in transfected cells; host or cells: 293T
T2 sequence (Q13950 whole entry, species assumed): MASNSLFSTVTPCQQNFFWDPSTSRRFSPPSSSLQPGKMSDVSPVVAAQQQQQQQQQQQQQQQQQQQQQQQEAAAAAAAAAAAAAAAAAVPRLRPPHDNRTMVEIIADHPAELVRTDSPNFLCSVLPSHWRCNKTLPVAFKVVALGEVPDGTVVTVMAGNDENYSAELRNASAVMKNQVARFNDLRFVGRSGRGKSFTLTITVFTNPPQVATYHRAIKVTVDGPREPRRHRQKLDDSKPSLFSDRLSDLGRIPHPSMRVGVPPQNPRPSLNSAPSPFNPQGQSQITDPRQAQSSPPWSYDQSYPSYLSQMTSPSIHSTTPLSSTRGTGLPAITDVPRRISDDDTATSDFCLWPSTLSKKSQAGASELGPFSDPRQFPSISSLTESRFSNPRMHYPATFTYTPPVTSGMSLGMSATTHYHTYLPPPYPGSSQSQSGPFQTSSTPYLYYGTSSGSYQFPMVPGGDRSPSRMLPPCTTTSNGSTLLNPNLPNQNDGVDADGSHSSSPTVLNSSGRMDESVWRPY
Experimental: Appropriately transfected cells were washed with cold PBS twice, and a reporter lysis buffer (Promega) was used and lysed in a culture dish. Luciferase analysis was performed using a luciferase analysis system (Promega Corporation, Madison, Wis.). A luciferase activity was recorded in Luminometer 20/20^n (Turner BioSystems, Sunnyvale, Calif.) according to instructions of the manufacturer. The luciferase activity was normalized to a β-galactosidase activity. For β-galactosidase analysis, CMV-β-galactosidase was transfected with luciferase reporter genes. All pieces of data were represented as mean±standard deviation of the results from at least three independent experiments.
Therefore, in order to characterize a potential role of sLZIP in the transcriptional activity of Runx2 by inhibiting the transcriptional activity of PPARγ2, the transcriptional activity of Runx2 was examined. For this purpose, 293T cells were temporarily transfected with Runx2 (0.5 μg), β-galactosidase (0.1 μg), 6 copies of Runx2 response elements (0.2 μg) and sLZIP at different contents (0.1 μg to 0.5 μg) (FIG. 7A). PPARγ2 (0.5 μg), β-galactosidase, Runx2, 6 copies of Runx2 response elements and sLZIP (0.5 μg) were expressed in the 293T cells (FIG. 7B). 293T cells were temporarily transfected with HDAC3 (0.5 μg), Runx2, β-galactosidase, 6 copies of Runx2 response elements and sLZIP at different contents (0.25 and 0.5 μg) (FIG. 7C). A promoter activity was measured by luciferase analysis. A luciferase activity was normalized to a β-galactosidase activity and represented as a relative activity (fold change). All experiments were repeated three times and data was represented as mean±standard deviation. A medium of primary MSCs and C3H10T1/2 cells of a human was exchanged with a differentiation medium in which 50 μg/mL of ascorbic acid, 10 mM of β-glycerol phosphate and 10% FBS were contained for 8 days (FIG. 7D). A medium of MEF cells was exchanged with a differentiation medium in which 50 μg/mL of ascorbic acid, 10 mM of β-glycerol phosphate and 10% FBS were contained for 8 days. […]

T1 sequence (O75376 whole entry): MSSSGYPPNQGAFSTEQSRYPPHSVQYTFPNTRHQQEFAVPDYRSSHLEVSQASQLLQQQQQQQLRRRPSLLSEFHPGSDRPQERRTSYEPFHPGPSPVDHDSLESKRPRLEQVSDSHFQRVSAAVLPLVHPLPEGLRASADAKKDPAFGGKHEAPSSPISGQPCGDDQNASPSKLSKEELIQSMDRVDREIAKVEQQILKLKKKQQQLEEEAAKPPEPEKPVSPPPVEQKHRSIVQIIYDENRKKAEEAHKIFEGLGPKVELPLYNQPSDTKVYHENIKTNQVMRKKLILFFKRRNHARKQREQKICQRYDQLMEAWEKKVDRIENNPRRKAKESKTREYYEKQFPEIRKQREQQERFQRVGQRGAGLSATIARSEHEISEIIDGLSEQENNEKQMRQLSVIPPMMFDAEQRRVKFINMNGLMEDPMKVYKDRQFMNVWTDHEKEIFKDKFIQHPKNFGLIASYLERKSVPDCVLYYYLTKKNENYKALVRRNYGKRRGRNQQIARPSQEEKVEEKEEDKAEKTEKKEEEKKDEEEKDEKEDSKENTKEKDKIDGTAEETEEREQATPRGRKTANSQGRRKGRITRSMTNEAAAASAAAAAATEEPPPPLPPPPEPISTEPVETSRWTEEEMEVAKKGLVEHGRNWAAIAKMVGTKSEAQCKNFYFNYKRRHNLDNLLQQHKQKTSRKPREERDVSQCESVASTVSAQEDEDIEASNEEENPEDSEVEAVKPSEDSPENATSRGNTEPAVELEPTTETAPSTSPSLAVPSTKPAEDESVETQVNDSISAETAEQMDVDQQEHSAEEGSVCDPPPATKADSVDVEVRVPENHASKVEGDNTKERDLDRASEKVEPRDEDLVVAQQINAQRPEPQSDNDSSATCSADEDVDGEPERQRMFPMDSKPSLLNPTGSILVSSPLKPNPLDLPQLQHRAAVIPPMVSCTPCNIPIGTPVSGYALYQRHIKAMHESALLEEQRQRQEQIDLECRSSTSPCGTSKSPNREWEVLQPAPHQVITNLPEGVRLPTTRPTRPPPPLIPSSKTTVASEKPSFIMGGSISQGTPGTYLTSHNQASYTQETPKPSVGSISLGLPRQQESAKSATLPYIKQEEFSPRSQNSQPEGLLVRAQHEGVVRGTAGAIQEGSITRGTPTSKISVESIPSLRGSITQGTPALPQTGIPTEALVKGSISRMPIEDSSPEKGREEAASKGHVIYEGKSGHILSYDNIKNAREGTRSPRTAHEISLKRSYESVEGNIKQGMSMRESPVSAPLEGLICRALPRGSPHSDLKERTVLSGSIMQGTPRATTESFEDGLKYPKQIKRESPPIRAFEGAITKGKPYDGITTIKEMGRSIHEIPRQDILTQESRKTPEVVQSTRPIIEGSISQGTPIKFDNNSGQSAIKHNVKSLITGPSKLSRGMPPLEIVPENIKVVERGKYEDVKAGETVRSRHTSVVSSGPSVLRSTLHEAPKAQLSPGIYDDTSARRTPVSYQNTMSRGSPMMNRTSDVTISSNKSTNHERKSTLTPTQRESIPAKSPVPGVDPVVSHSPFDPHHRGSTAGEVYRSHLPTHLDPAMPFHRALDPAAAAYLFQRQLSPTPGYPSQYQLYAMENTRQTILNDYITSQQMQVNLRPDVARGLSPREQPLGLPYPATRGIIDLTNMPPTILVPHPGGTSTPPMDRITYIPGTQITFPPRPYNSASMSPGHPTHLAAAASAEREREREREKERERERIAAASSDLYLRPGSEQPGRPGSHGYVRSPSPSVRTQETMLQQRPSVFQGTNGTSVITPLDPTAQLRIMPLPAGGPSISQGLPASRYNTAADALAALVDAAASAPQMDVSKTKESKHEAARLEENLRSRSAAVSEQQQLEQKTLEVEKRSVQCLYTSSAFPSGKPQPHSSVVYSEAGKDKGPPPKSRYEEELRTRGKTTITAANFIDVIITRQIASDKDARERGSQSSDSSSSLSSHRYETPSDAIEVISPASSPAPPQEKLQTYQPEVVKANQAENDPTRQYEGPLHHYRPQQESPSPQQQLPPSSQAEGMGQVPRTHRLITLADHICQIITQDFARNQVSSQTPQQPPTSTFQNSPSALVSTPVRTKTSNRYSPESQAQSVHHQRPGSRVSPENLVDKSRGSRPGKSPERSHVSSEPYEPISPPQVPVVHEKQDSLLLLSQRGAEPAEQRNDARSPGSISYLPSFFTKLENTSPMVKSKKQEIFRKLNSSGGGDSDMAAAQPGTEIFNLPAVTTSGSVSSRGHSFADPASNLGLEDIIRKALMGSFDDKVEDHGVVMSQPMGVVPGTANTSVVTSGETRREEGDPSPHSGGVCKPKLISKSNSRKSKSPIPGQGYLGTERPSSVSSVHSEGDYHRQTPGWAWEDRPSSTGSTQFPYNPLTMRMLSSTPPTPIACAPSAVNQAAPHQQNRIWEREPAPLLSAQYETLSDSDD

B1: sLZIP: human small leucine-zipper protein, isoform of LZIP, 354 amino acids, no transmembrane domain, GenBank FJ263669, SEQ ID NO: 1 (protein, listed as Homo sapiens)
chain: MELELDAGDQDLLAFLLEESGDLGTAPDEAVRAPLDWALPLSEVPSDWEVDDLLCSLLSPPASLNILSSSNPCLVHHDHTYSLPRETVSMDLESESCRKEGTQMTPQHMEELAEQEIARLVLTDEEKSLLEKEGLILPETLPLTKTEEQILKRVRRKIRNKRSAQESRRKKKVYVGGLESRVLKYTAQNMELQNKVQLLEEQNLSLLDQLRKLQAMVIEISNKTSSSSMYSSDTRGSLPAEHGVLSRQLRALPSEDPYQLELPALQSEVPKDSTHQWLDGSDCVLQAPGNTSCLLHYMPQAPSAEPPLEWPFPDLFSEPLCRGPILPLQANLTRKGGWLPTGSPSVILQDRYSG
NCoR1
  interaction with NCoR1: slightly dissociated from sLZIP
Runx2; HDAC3 0.5 μg co-expressed, sLZIP 0.25 and 0.5 μg
  transcriptional activity of Runx2: restored the transcriptional activity of Runx2
Runx2; PPARγ2 0.5 μg co-expressed, sLZIP 0.5 μg
  transcriptional activity of Runx2: restored the activity of Runx2
Runx2; sLZIP 0.1 μg to 0.5 μg
  increase of the transcriptional activity of Runx2 (factor): about 4
